B1: FABP7 peptide #23 (Aa 112-126 of SEQ ID NO: 6) (peptide)
peptide: GKMVMTLTFGDVVAV
notes: FABP7 isoform 1 peptide; also called Pool 4 FABP7
B2: FABP7 peptide #22 (Aa 107-121 of SEQ ID NO: 6) (peptide)
peptide: REIKDGKMVMTLTFG
notes: as for B1

What follows are molecules tested against HLA DRB5 01:01 (Homo sapiens, UniProt P01903+Q30154) (assay: Competitive binding assay of overlapping peptides to HLA). Settings: competitive binding to HLA DRB5 01:01, compared with reference H1N1 influenza peptide.
With “Aa 02-16-SEQ ID NO: 1 (VEAFCATWKLTNSQN; listed as Homo sapiens) [FABP7 #1]” the Binding affinity was “+”. “Aa 07-21-SEQ ID NO: 1 (ATWKLTNSQNFDEYM; listed as Homo sapiens) [FABP7 #2]” was tested, and the Binding affinity was “+”. In the case of “Aa 12-26-SEQ ID NO: 1 (TNSQNFDEYMKALGV; listed as Homo sapiens) [FABP7 #3]”, the Binding affinity is reported as “−”. “Aa 17-31-SEQ ID NO: 1 (FDEYMKALGVGFATR; listed as Homo sapiens) [FABP7 #4]” was tested, and the Binding affinity was “++”. With “Aa 22-36-SEQ ID NO: 1 (KALGVGFATRQVGNV; listed as Homo sapiens) [FABP7 #5]” the Binding affinity was “−”. “Aa 27-41-SEQ ID NO: 1 (GFATRQVGNVTKPTV; listed as Homo sapiens) [FABP7 #6]” was tested, and the Binding affinity was “+”. “Aa 28-42-SEQ ID NO: 2 (AVITGACDKDSQCGG; listed as Homo sapiens) [PROK2 #1]” was tested, and the Binding affinity was “−”. With “Aa 32-46-SEQ ID NO: 1 (QVGNVTKPTVIISQE; listed as Homo sapiens) [FABP7 #7]” the Binding affinity was “−”. “Aa 33-47-SEQ ID NO: 2 (ACDKDSQCGGGMCCA; listed as Homo sapiens) [PROK2 #2]” was tested, and the Binding affinity was “−”. With “Aa 37-51-SEQ ID NO: 1 (TKPTVIISQEGDKVV; listed as Homo sapiens) [FABP7 #8]” the Binding affinity was “−”. In the case of “Aa 38-52-SEQ ID NO: 2 (SQCGGGMCCAVSIWV; listed as Homo sapiens) [PROK2 #3]”, the Binding affinity is reported as “−”. “Aa 42-56-SEQ ID NO: 1 (IISQEGDKVVIRTLS; listed as Homo sapiens) [FABP7 #9]” was tested, and the Binding affinity was “−”. With “Aa 43-57-SEQ ID NO: 2 (GMCCAVSIWVKSIRI; listed as Homo sapiens) [PROK2 #4]” the Binding affinity was “+”. With “Aa 47-61-SEQ ID NO: 1 (GDKVVIRTLSTFKNT; listed as Homo sapiens) [FABP7 #10]” the Binding affinity was “+”. In the case of “Aa 48-62-SEQ ID NO: 2 (VSIWVKSIRICTPMG; listed as Homo sapiens) [PROK2 #5]”, the Binding affinity is reported as “+”. In the case of “Aa 52-66-SEQ ID NO: 1 (IRTLSTFKNTEISFQ; listed as Homo sapiens) [FABP7 #11]”, the Binding affinity is reported as “−”. In the case of “Aa 53-67-SEQ ID NO: 2 (KSIRICTPMGKLGDS; listed as Homo sapiens) [PROK2 #6]”, the Binding affinity is reported as “+++”. For “Aa 57-71-SEQ ID NO: 1 (TFKNTEISFQLGEEF; listed as Homo sapiens) [FABP7 #12]”, the Binding affinity was “−”. “Aa 58-72-SEQ ID NO: 2 (CTPMGKLGDSCHPLT; listed as Homo sapiens) [PROK2 #7]” was tested, and the Binding affinity was “−”. With “Aa 59-69 + 96-99-SEQ ID NO: 2 [PROK2 #15]” the Binding affinity was “−”. With “Aa 62-76-SEQ ID NO: 1 (EISFQLGEEFDETTA; listed as Homo sapiens) [FABP7 #13]” the Binding affinity was “−”. In the case of “Aa 63-77-SEQ ID NO: 2 (KLGDSCHPLTRKNNF; listed as Homo sapiens) [PROK2 #8]”, the Binding affinity is reported as “−”. With “Aa 64-69 + 96-104-SEQ ID NO: 2 [PROK2 #16]” the Binding affinity was “+”. In the case of “Aa 67-81-SEQ ID NO: 1 (LGEEFDETTADDRNC; listed as Homo sapiens) [FABP7 #14]”, the Binding affinity is reported as “−”. “Aa 68-82-SEQ ID NO: 2 (CHPLTRKNNFGNGRQ; listed as Homo sapiens) [PROK2 #9]” was tested, and the Binding affinity was “+”. With Aa 69 + 96-109-SEQ ID NO: 2 [PROK2 #17] the Binding affinity was “−”. In the case of “Aa 72-86-SEQ ID NO: 1 (DETTADDRNCKSVVS; listed as Homo sapiens) [FABP7 #15]”, the Binding affinity is reported as “−”. In the case of “Aa 73-87-SEQ ID NO: 2 (RKNNFGNGRQERRKR; listed as Homo sapiens) [PROK2 #10]”, the Binding affinity is reported as “+”. In the case of “Aa 77-91-SEQ ID NO: 1 (DDRNCKSVVSLDGDK; listed as Homo sapiens) [FABP7 #16]”, the Binding affinity is reported as “−”. “Aa 78-92-SEQ ID NO: 2 (GNGRQERRKRKRSKR; listed as Homo sapiens) [PROK2 #11]” was tested, and the Binding affinity was “−”. With “Aa 82-96-SEQ ID NO: 1 (KSVVSLDGDKLVHIQ; listed as Homo sapiens) [FABP7 #17]” the Binding affinity was “−”. “Aa 83-97-SEQ ID NO: 2 (ERRKRKRSKRKKEVP; listed as Homo sapiens) [PROK2 #12]” was tested, and the Binding affinity was “−”. With “Aa 87-101-SEQ ID NO: 1 (LDGDKLVHIQKWDGK; listed as Homo sapiens) [FABP7 #18]” the Binding affinity was “−”. “Aa 88-102-SEQ ID NO: 2 (KRSKRKKEVPFFGRR; listed as Homo sapiens) [PROK2 #13]” was tested, and the Binding affinity was “−”. “Aa 92-106-SEQ ID NO: 1 (LVHIQKWDGKETNFV; listed as Homo sapiens) [FABP7 #19]” was tested, and the Binding affinity was “−”. In the case of “Aa 93-107-SEQ ID NO: 2 (KKEVPFFGRRMHHTC; listed as Homo sapiens) [PROK2 #14]”, the Binding affinity is reported as “+”. In the case of “Aa 97-111-SEQ ID NO: 1 (KWDGKETNFVREIKD; listed as Homo sapiens) [FABP7 #20]”, the Binding affinity is reported as “−”. “Aa 100-114-SEQ ID NO: 2 (GRRMHHTCPCLPGLA; listed as Homo sapiens) [PROK2 #18]” was tested, and the Binding affinity was “−”. “Aa 102-116-SEQ ID NO: 1 (ETNFVREIKDGKMVM; listed as Homo sapiens) [FABP7 #21]” was tested, and the Binding affinity was “+”. “Aa 105-119-SEQ ID NO: 2 (HTCPCLPGLACLRTS; listed as Homo sapiens) [PROK2 #19]” was tested, and the Binding affinity was “−”. For “Aa 106-120-SEQ ID NO: 1 (VREIKDGKMVMVSND; listed as Homo sapiens) [FABP7 #25]”, the Binding affinity was “−”. With “Aa 107-121-SEQ ID NO: 6 (REIKDGKMVMTLTFG; listed as Homo sapiens) [FABP7 #22]” the Binding affinity was “−”. In the case of “Aa 110-124-SEQ ID NO: 2 (LPGLACLRTSFNRFI; listed as Homo sapiens) [PROK2 #20]”, the Binding affinity is reported as “++”. For “Aa 111-125-SEQ ID NO: 1 (DGKMVMVSNDNSPFF; listed as Homo sapiens) [FABP7 #26]”, the Binding affinity was “+”. For “Aa 112-126-SEQ ID NO: 6 (GKMVMTLTFGDVVAV; listed as Homo sapiens) [FABP7 #23]”, the Binding affinity was “−”. In the case of “Aa 115-129-SEQ ID NO: 2 (CLRTSFNRFICLAQK; listed as Homo sapiens) [PROK2 #21]”, the Binding affinity is reported as “+”. “Aa 116-130-SEQ ID NO: 1 (MVSNDNSPFFLVFFS; listed as Homo sapiens) [FABP7 #27]” was tested, and the Binding affinity was “−”. In the case of “Aa 118-132-SEQ ID NO: 6 (LTFGDVVAVRHYEKA; listed as Homo sapiens) [FABP7 #24]”, the Binding affinity is reported as “+”. For “Aa 121-135-SEQ ID NO: 1 (NSPFFLVFFSSPHTS; listed as Homo sapiens) [FABP7 #28]”, the Binding affinity was “+++”. “Aa 126-140-SEQ ID NO: 1 (LVFFSSPHTSHLLPS; listed as Homo sapiens) [FABP7 #29]” was tested, and the Binding affinity was “+”. In the case of “Aa 131-145-SEQ ID NO: 1 (SPHTSHLLPSSSLLL; listed as Homo sapiens) [FABP7 #30]”, the Binding affinity is reported as “+”. In the case of “Aa 136-150-SEQ ID NO: 1 (HLLPSSSLLLPFFLL; listed as Homo sapiens) [FABP7 #31]”, the Binding affinity is reported as “−”. “Aa 141-155-SEQ ID NO: 1 (SSLLLPFFLLPSFFN; listed as Homo sapiens) [FABP7 #32]” was tested, and the Binding affinity was “−”. For “Aa 146-160-SEQ ID NO: 1 (PFFLLPSFFNNTSLA; listed as Homo sapiens) [FABP7 #33]”, the Binding affinity was “++”. With “Aa 152-166-SEQ ID NO: 1 (SFFNNTSLARFFNYM; listed as Homo sapiens) [FABP7 #34]” the Binding affinity was “+”.

What follows are molecules tested against HLA DRB5 01:01 (assay: competitive HLA binding assay (legend: - No binding)). Settings: not given.
LVHIQKWDGKETNFV (also called Pool 4 FABP7) [FABP7 peptide #19 (Aa 92-106 of SEQ ID NO: 1)]: no binding. LDGDKLVHIQKWDGK (also called Pool 3 FABP7) [FABP7 peptide #18 (Aa 87-101 of SEQ ID NO: 1)]: no binding. B1: no binding. B2: no binding. KSVVSLDGDKLVHIQ (also called Pool 3 FABP7) [FABP7 peptide #17 (Aa 82-96 of SEQ ID NO: 1)]: no binding. DETTADDRNCKSVVS (also called Pool 3 FABP7) [FABP7 peptide #15 (Aa 72-86 of SEQ ID NO: 1)]: no binding. KWDGKETNFVREIKD (also called Pool 4 FABP7) [FABP7 peptide #20 (Aa 97-111 of SEQ ID NO: 1)]: no binding. DDRNCKSVVSLDGDK (also called Pool 3 FABP7) [FABP7 peptide #16 (Aa 77-91 of SEQ ID NO: 1)]: no binding. VREIKDGKMVMVSND (also called Pool 5 FABP7) [FABP7 peptide #25 (Aa 106-120 of SEQ ID NO: 1)]: no binding. HLLPSSSLLLPFFLL (also called Pool 6 FABP7) [FABP7 peptide #31 (Aa 136-150 of SEQ ID NO: 1)]: no binding. KALGVGFATRQVGNV (also called Pool 1 FABP7) [FABP7 peptide #5 (Aa 22-36 of SEQ ID NO: 1)]: no binding. MVSNDNSPFFLVFFS (also called Pool 5 FABP7) [FABP7 peptide #27 (Aa 116-130 of SEQ ID NO: 1)]: no binding. TNSQNFDEYMKALGV (also called Pool 1 FABP7) [FABP7 peptide #3 (Aa 12-26 of SEQ ID NO: 1)]: no binding. AVITGACDKDSQCGG (also called Pool 1 PROK2) [PROK2 peptide #1 (Aa 28-42 of SEQ ID NO: 2)]: no binding. SSLLLPFFLLPSFFN (also called Pool 6 FABP7) [FABP7 peptide #32 (Aa 141-155 of SEQ ID NO: 1)]: no binding.
